Positions count from the first letter of the chain named.
B1: 91 (protein)
chain: MTTRTRILTAFLSLLAANACAADAAPAAPHTVVLRAARMFDGASGKLVDHPQLTIVGNKIVRIAQGDKAEVPAGAEVVDLGDATLLPGFIDAHVHLSGQSSDNWYGDFFDNMMRFPAEQALYGAYYARITLEAGFTSVRDVGSTDWVALGLRNAIDAGKVPGPRMLVSNYAVGSTGGHADQDPIPPHKLPLAGPLQGVCNGPEECRAAVRYQIKYGANVIKFMPSGGVLSLSDPVDAPELSQDEMNAVIGESHAWGRKVAAHAHGDKAAKMAVAAGVDSIEHGSFIEDDTLRAMKAKNVYLVPTISAIAHVEEKIGTLPPVIAEKGRAAAAHLRQTFRHAVQIGVPIALGTDAGVGAHGSNAREFRYMVENGLTPAQALLAGTANAARLLGTFDRVGTLEAGKLADVVAVPGNPIADITVTERPLFVMKDGVVVRRDAVR
modifications: exemplary polypeptide
B2: 140 (protein)
chain: B1 chain with S97V, L318F
modifications: exemplary polypeptide
B3: 108 (protein)
chain: B1 chain with H310N, L318F
modifications: exemplary polypeptide
B4: 103 (protein)
chain: B1 chain with I184V, L318F
modifications: exemplary polypeptide
B5: 121 (protein)
chain: B1 chain with F109Y, L318F
modifications: exemplary polypeptide
B6: 106 (protein)
chain: B1 chain with H187N, L318F
modifications: exemplary polypeptide
B7: 139 (protein)
chain: B1 chain with S97T, L318F
modifications: exemplary polypeptide
B8: 128 (protein)
chain: B1 chain with A36C, L85C, L318F
modifications: exemplary polypeptide
B9: 137 (protein)
chain: B1 chain with S97N, L318F
modifications: exemplary polypeptide
B10: 95 (protein)
chain: B1 chain with L318F, V355L
modifications: exemplary polypeptide
B11: 141 (protein)
chain: B1 chain with G142A, L318F
modifications: exemplary polypeptide
B12: 127 (protein)
chain: B1 chain with K258Y, L318F, G391R
modifications: exemplary polypeptide
B13: 111 (protein)
chain: B1 chain with L318F, H332Q
modifications: exemplary polypeptide
B14: 124 (protein)
chain: B1 chain with T317Y, L318F
modifications: exemplary polypeptide
B15: 143 (protein)
chain: B1 chain with T144D, L318F
modifications: exemplary polypeptide
B16: 105 (protein)
chain: B1 chain with H187Q, L318F
modifications: exemplary polypeptide
B17: 125 (protein)
chain: B1 chain with L318Y
modifications: exemplary polypeptide
B18: 136 (protein)
chain: B1 chain with S97D, L318F
modifications: exemplary polypeptide
B19: 96 (protein)
chain: B1 chain with L318F, V355I
modifications: exemplary polypeptide
B20: 122 (protein)
chain: B1 chain with Q242P, L318F
modifications: exemplary polypeptide
B21: 107 (protein)
chain: B1 chain with H310Q, L318F
modifications: exemplary polypeptide
B22: 138 (protein)
chain: B1 chain with S97P, L318F
modifications: exemplary polypeptide
B23: 113 (protein)
chain: B1 chain with E287Q, L318F
modifications: exemplary polypeptide
B24: 120 (protein)
chain: B1 chain with Y126W, L318F
modifications: exemplary polypeptide
B25: 119 (protein)
chain: B1 chain with Y122R, L318F
modifications: exemplary polypeptide

Experiment: OTA detoxification activity assay (specific activity, fluorescence reduction ex/em 390/450 nm)
Assay type: biochemical
Conditions: pH 6.0; SEQ ID NO: 1 = 100%
Summary of the method: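 Recombinant enzyme preparation with 200 ng/mL OTA in 100 mM sodium phosphate, at pH 6.0 and pH 7.5, 37° C. Degradation followed as the fall in fluorescence at ex/em 390/450 nm. Specific activity taken from the initial linear slope; one unit degrades 1 μmol OTA per min at a starting OTA of […].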

Compared with B1, B2 is higher in “Specific OTA detoxification activities in % compared to the enzyme of SEQ ID NO: 1, pH 6.0” value: 49% for the first, 118% for the second.

Compared with B3, B4 is higher in “Specific OTA detoxification activities in % compared to the enzyme of SEQ ID NO: 1, pH 6.0” value: 61% for the first, 101% for the second.

Compared with B5, B6 is higher in “Specific OTA detoxification activities in % compared to the enzyme of SEQ ID NO: 1, pH 6.0” value: 84% for the first, 88% for the second.

First: B7
Second: B8
The “Specific OTA detoxification activities in % compared to the enzyme of SEQ ID NO: 1, pH 6.0” value of the first is higher: 141% for the first, 67% for the second.

Going from B9 to B10, the “Specific OTA detoxification activities in % compared to the enzyme of SEQ ID NO: 1, pH 6.0” value rises from 86% to 108%.

First: B11
Second: B12
The “Specific OTA detoxification activities in % compared to the enzyme of SEQ ID NO: 1, pH 6.0” value of the first is higher: 138% for the first, 78% for the second.

Going from B13 to B14, the “Specific OTA detoxification activities in % compared to the enzyme of SEQ ID NO: 1, pH 6.0” value rises from 8% to 87%.

Compared with B15, B16 is lower in “Specific OTA detoxification activities in % compared to the enzyme of SEQ ID NO: 1, pH 6.0” value: 86% for the first, 81% for the second.

First: B17
Second: B18
The “Specific OTA detoxification activities in % compared to the enzyme of SEQ ID NO: 1, pH 6.0” value of the first is lower: 58% for the first, 64% for the second.

First: B19
Second: B20
The “Specific OTA detoxification activities in % compared to the enzyme of SEQ ID NO: 1, pH 6.0” value of the first is lower: 42% for the first, 59% for the second.

Compared with B21, B22 is lower in “Specific OTA detoxification activities in % compared to the enzyme of SEQ ID NO: 1, pH 6.0” value: 54% for the first, 46% for the second.

Going from B23 to B24, the “Specific OTA detoxification activities in % compared to the enzyme of SEQ ID NO: 1, pH 6.0” value rises from 31% to 85%.

With B25 the “Specific OTA detoxification activities in % compared to the enzyme of SEQ ID NO: 1, pH 6.0” value was 107%.

Same assay, conditions: pH 7.5; SEQ ID NO: 1 = 100%

Going from B1 to B2, the “Specific OTA detoxification activities in % compared to the enzyme of SEQ ID NO: 1, pH 7.5” value rises from 73% to 120%.

Going from B3 to B4, the “Specific OTA detoxification activities in % compared to the enzyme of SEQ ID NO: 1, pH 7.5” value rises from 96% to 124%.

Compared with B5, B6 is higher in “Specific OTA detoxification activities in % compared to the enzyme of SEQ ID NO: 1, pH 7.5” value: 78% for the first, 126% for the second.

First: B7
Second: B8
The “Specific OTA detoxification activities in % compared to the enzyme of SEQ ID NO: 1, pH 7.5” value of the first is higher: 88% for the first, 73% for the second.

First: B9
Second: B10
The “Specific OTA detoxification activities in % compared to the enzyme of SEQ ID NO: 1, pH 7.5” value of the first is lower: 93% for the first, 178% for the second.

Going from B11 to B12, the “Specific OTA detoxification activities in % compared to the enzyme of SEQ ID NO: 1, pH 7.5” value falls from 123% to 82%.

Going from B13 to B14, the “Specific OTA detoxification activities in % compared to the enzyme of SEQ ID NO: 1, pH 7.5” value rises from 52% to 78%.

Compared with B15, B16 is higher in “Specific OTA detoxification activities in % compared to the enzyme of SEQ ID NO: 1, pH 7.5” value: 84% for the first, 120% for the second.

Compared with B17, B18 is lower in “Specific OTA detoxification activities in % compared to the enzyme of SEQ ID NO: 1, pH 7.5” value: 94% for the first, 48% for the second.

Going from B19 to B20, the “Specific OTA detoxification activities in % compared to the enzyme of SEQ ID NO: 1, pH 7.5” value rises from 33% to 80%.

First: B21
Second: B22
The “Specific OTA detoxification activities in % compared to the enzyme of SEQ ID NO: 1, pH 7.5” value of the first is higher: 92% for the first, 29% for the second.

Going from B23 to B24, the “Specific OTA detoxification activities in % compared to the enzyme of SEQ ID NO: 1, pH 7.5” value falls from 95% to 90%.

For B25, the “Specific OTA detoxification activities in % compared to the enzyme of SEQ ID NO: 1, pH 7.5” value was 101%.

Experiment: Enzymatic activity comparison: activity remaining after 65° C. for 10 min at pH 6.0, relative to SEQ ID NO: 1
Assay type: physicochemical
Conditions: not given
Description: To compare the temperature behavior and thermostability of selected enzymes to one another, enzyme was incubated at 65° C. for 10 min at pH 6.0. The enzymatic activity remaining after incubation was compared to the remaining activity of the enzyme of SEQ ID NO: 1 after incubation, the latter being set to 100%, see Table 16.

Going from B1 to B2, the “Enzymatic activity remaining after incubation, compared to SEQ ID NO: 1 (set to 100%)” value rises from 16% to 34%.

Going from B3 to B4, the “Enzymatic activity remaining after incubation, compared to SEQ ID NO: 1 (set to 100%)” value rises from 27% to 36%.

Compared with B5, B6 is lower in “Enzymatic activity remaining after incubation, compared to SEQ ID NO: 1 (set to 100%)” value: 40% for the first, 27% for the second.

Going from B7 to B8, the “Enzymatic activity remaining after incubation, compared to SEQ ID NO: 1 (set to 100%)” value rises from 40% to 84%.

First: B9
Second: B10
The “Enzymatic activity remaining after incubation, compared to SEQ ID NO: 1 (set to 100%)” value of the first is higher: 48% for the first, 38% for the second.

Going from B11 to B12, the “Enzymatic activity remaining after incubation, compared to SEQ ID NO: 1 (set to 100%)” value rises from 55% to 64%.

First: B13
Second: B14
The “Enzymatic activity remaining after incubation, compared to SEQ ID NO: 1 (set to 100%)” value of the first is lower: 35% for the first, 42% for the second.

Going from B15 to B16, the “Enzymatic activity remaining after incubation, compared to SEQ ID NO: 1 (set to 100%)” value falls from 21% to 15%.

Going from B17 to B18, the “Enzymatic activity remaining after incubation, compared to SEQ ID NO: 1 (set to 100%)” value falls from 100% to 36%.

Compared with B19, B20 is higher in “Enzymatic activity remaining after incubation, compared to SEQ ID NO: 1 (set to 100%)” value: 39% for the first, 40% for the second.

Going from B21 to B22, the “Enzymatic activity remaining after incubation, compared to SEQ ID NO: 1 (set to 100%)” value rises from 21% to 27%.

Going from B23 to B24, the “Enzymatic activity remaining after incubation, compared to SEQ ID NO: 1 (set to 100%)” value falls from 62% to 23%.

In the case of B25, the “Enzymatic activity remaining after incubation, compared to SEQ ID NO: 1 (set to 100%)” value is reported as 45%.

— US20240352438A1, “MEANS AND METHODS FOR DETOXIFYING OCHRATOXIN A” (DSM Austria GmbH, priority 2021, published 2024)
